Measurements taken from patent US20220396782.

Tested on: variant Cas12i2 (RNP, exact variant not stated in Examples 1-5)
Experiment: cell_activity
Conditions: HEK293T RNP 10 uM, 3 days

## AGAAAUCCGUCUUUCAUUGACGGUAGAUGCUGUCCGAGGCAGU / TAGATGCTGTCCGAGGCAGT / ACTGCCTCGGACAGCATCTA [E2T3 Cas12i2 crRNA ; TTR E2T3 target]
PAM 5'-TTN (GTTC)
  activity: > 80 % indels

## AGAAAUCCGUCUUUCAUUGACGGGUAUAUCCCUUCUACAAAUU / GTATATCCCTTCTACAAATT / AATTTGTAGAAGGGATATAC [E3T3 Cas12i2 crRNA ; TTR E3T3 target]
PAM 5'-TTN (CTTT)
  activity: > 80 % indels

## AGAAAUCCGUCUUUCAUUGACGGAGGUCCACUGGAGGAGAAGU / AGGTCCACTGGAGGAGAAGT / ACTTCTCCTCCAGTGGACCT [E4T6 Cas12i2 crRNA ; TTR E4T6 target]
PAM 5'-TTN (CTTC)
  activity: > 80 % indels
